Data reported in US20230391852A1 (US Dept. of Health and Human Services, published 2023).
Where “and” joins values, the source holds several entries; their conditions need not be identical. Equal values may be shown once.

Experiments:
RBD-mFc [1] = target: T1, RBD-mFc (SARS-CoV-2, UniProt P0DTC2 319-541)
RBD-mFc [2] = target: T1, RBD-mFc; remark: listed apart in the source
[3] = target: SARS-CoV-2 spike on pseudovirus (SARS-CoV-2, UniProt P0DTC2 14-1273); test: cell-based or functional assay
BSA = target: T2, BSA (UniProt P02769 25-607); test: ELISA, 1 µg/ml coated BSA, 1 µg/ml VHH-hFc
T2 construct: also called control protein
T2 sequence (P02769 25-607 limits assumed): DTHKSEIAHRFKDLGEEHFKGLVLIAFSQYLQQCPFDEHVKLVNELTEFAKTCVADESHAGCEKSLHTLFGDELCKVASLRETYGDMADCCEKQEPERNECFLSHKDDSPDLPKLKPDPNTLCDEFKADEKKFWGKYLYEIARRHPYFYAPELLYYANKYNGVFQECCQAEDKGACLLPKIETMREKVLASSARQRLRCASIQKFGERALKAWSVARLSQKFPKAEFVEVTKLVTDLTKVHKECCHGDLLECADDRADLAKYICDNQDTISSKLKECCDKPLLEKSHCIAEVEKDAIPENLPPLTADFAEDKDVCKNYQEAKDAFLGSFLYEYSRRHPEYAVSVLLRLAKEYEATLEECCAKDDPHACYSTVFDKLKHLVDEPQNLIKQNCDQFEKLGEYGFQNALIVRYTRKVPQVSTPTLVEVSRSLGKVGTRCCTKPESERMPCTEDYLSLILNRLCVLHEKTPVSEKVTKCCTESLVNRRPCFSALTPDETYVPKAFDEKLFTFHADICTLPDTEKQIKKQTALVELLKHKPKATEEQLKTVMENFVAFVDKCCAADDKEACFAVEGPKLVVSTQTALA

[4] = target: T3, SARS-CoV S protein trimer expressed on human A431 cells (SARS-CoV, UniProt P59594 14-1255); test: flow cytometry on A431 cells expressing SARS-CoV S (A431-CoV-S)
T3 construct: whole, on cells; also called S protein of SARS-CoV

SARS-CoV-2 RBD = SARS-CoV-2 RBD (SARS-CoV-2, UniProt P0DTC2 319-541); test: monoclonal phage ELISA, drawn table of OD450 values
SARS-CoV-2 S trimer = target: T4, SARS-CoV-2 S trimer (SARS-CoV-2, UniProt P0DTC2 16-1213); test: as above
T4 construct: also called SARS-CoV-2 S protein; S homotrimer protein

[5] = target: T3, SARS-CoV S protein trimer expressed on …; test: flow cytometry on A431 cells expressing SARS-CoV S protein trimer (FIG. 3B)
SARS-CoV S1 = target: T5, SARS-CoV S1 (SARS-CoV, UniProt P59594 14-667); test: ELISA, 1 µg/ml coated antigen, 1 µg/ml VHH-hFc
T5 construct: domain: S1; also called SARS-CoV S1 protein

B1: 1B5 VHH-hFc (Fc fusion)
chain: DVQLVESGGGSVQAGGSLRLSCTGSRYTYSTYCMGWFRQAPGKEEEAVAIINSGGGEPYYGDSVKGRFTISQDRAKNTVYLQMDGLQPDDTAIYYCVAADSHNSRCYLGRSYVNYWGQGTQVTVSS
notes: also called 1B5-hFc; NCI-CoV-1B5 VHH-hFc fusion protein
Question: For B1, which IC50 (RBD-mFc [1]) is on record?
Answer: Its IC50 is under 0.001 mg/L.

Question: What about the “IC50 (read off the curve)” value (RBD-mFc [2]) of the same binder?
Answer: Its value is about 0.3 mg/L.

Question: And the Kd (SARS-CoV-2)?
Answer: Its Kd is 0.1 nM.

Question: What about the “IC50, SARS-CoV-2 spike pseudovirus neutralization on HEK 293T-hACE2 cells” value [3] of the same binder?
Answer: Its value is 6.6 nM and 0.55 µg/ml.

Question: And the “IC50, SARS-CoV-2 spike pseudovirus neutralization, repeated assay (FIGS. 9A-9F)” value [3]?
Answer: Its value is 7.6 nM.

Question: Does B1 bind (BSA)?
Answer: Result: no binding (tested: 1 µg/ml)

Question: What about the “percent of cells right of the dashed gate line” value [4] of the same binder?
Answer: Its value is 98.3%.

B2: NCI-CoV-7E7 (VHH)
VHH: AVQLVDSGGGSVQSGGSLRLSCVASGYTYSIYNMGWFRQAPGKGLEWVSGINSDGSNTYYADSVKGRFTISRDNAKNTLYLQMNSLKSEDTALYYCATLPICSGGYCPPGYWGQGTQVTVSS
Question: B2 was tested. Which OD450 (SARS-CoV-2 RBD) did it give?
Answer: The OD450 was 1.

Question: What about the OD450 (SARS-CoV-2 S trimer) of the same binder?
Answer: Its OD450 is 0.57.

B3: 7A3 VHH-hFc (Fc fusion)
chain: QVQLVESGGGSVQPGGSLRLSCVVSGYTSSSRYMGWFRQVPGKGLEWVSGIKRDGTNTYYADSVKGRFTISQDNAKNTVYLQMNSLKPEDTAMYYCAAGSWYNQWGYSMDYWGKGTQVTVSS
notes: also called 7A3-hFc; NCI-CoV-7A3 VHH-hFc fusion protein
Question: What does the source list for B3?
Answer: Kd (SARS-CoV-2): 0.2 nM; percent of cells right of the dashed gate line [4]: 92.1%

B4: 8A2 VHH-hFc (Fc fusion)
chain: AVQLVDSGGGSVQAGGSLRLSCAASGYTYSICTMGWYRQAPGEGLEWVSGINADGSNTHYTDSVKGRFTISRDNAKKTLYLQMNSLKPEDTAIYYCAAHGTYDKYAPCGGFAGTYTYWGQGTQVTVSS
notes: also called NCI-CoV-8A2 VHH-hFc
Question: Which results are given for B4?
Answer: Kd (SARS-CoV-2): 0.26 nM; binding result [5]: no binding; percent of cells right of the dashed gate line [4]: 59.2%

B5: 1H6 VHH-hFc (Fc fusion)
chain: AVQLVDSGGGSVQAGGSLNLSCVASGTTLRNGCMAWFRQVPGKEREVVAIIIRATSYTDYADSVKGRFTISQDNAKNTVYLQMKSLTPEDTATYYCAATLYRVNCAKREFDKWGQGTQVTVSS
notes: also called 1H6-hFc; NCI-CoV-1H6 VHH-hFc fusion protein
Question: For B5, which Kd (SARS-CoV-2) is on record?
Answer: The Kd was 37 nM.

Question: Does B5 bind (SARS-CoV S1)?
Answer: Result: no binding (tested: 1 µg/ml)
